In the FLAb antibody collection (doi:10.7554/elife.23156):

B1: scFv; the commonest letter at each place (parent)
chain 1: EVKLDETGGGLVQPGRPMKLSCVASGFTFSDYWMNWVRQSPEKGLEWVAQIRNKPYNYETYYSDSVKGRFTISRDDSKSSVYLQMNNLRVEDMGIYYCTGSYYGMDYWGQGTSVTVS
chain 2: DVVMTQTPLSLPVSLGDQASISCRSSQSLVHSNGNTYLRWYLQKPGQSPKVLIYKVSNRFSGVPDRFSGSGSGTDFTLKISRVEAEDLGVYFCSQSTHVPWTFGGGTKLEIK

How the values were obtained:
fluorescein = variants of: B1; assay: Kd (Tite-Seq); conditions: with fluorescein; format: scFv 4-4-20, heavy + light
[1] = variants of: B1; assay: yeast surface expression (ratio to wild type); higher = more expressed; conditions: format: scFv 4-4-20, heavy + light

| Variant | Kd (fluorescein) [nM] | yeast surface expression [1] |
| --- | --- | --- |
| chain 1 EVKLDETGGGLVQPGRPMKLSCVASGFILSDYWMNWVRQSPEKGLEWVAQIRNKPYNYETYYSDSVKGRFTISRDDSKSSVYLQMNNLRVEDMGIYYCTGSYYGMDYWGQGTSVTVS chain 2 DVVMTQTPLSLPVSLGDQASISCRSSQSLVHSNGNTYLRWYLQKPGQSPKVLIYKVSNRFSGVPDRFSGSGSGTDFTLKISRVEAEDLGVYFCSQSTHVPWTFGGGTKLEIK [chain 1 T28I F29L] | 31.8 | 0.851 |
| chain 1 EVKLDETGGGLVQPGRPMKLSCVASGFIFSDYKMNWVRQSPEKGLEWVAQIRNKPYNYETYYSDSVKGRFTISRDDSKSSVYLQMNNLRVEDMGIYYCTGSYYGMDYWGQGTSVTVS chain 2 DVVMTQTPLSLPVSLGDQASISCRSSQSLVHSNGNTYLRWYLQKPGQSPKVLIYKVSNRFSGVPDRFSGSGSGTDFTLKISRVEAEDLGVYFCSQSTHVPWTFGGGTKLEIK [chain 1 T28I W33K] | ≥ 10000 | 0.617 |
| chain 1 EVKLDETGGGLVQPGRPMKLSCVASGFIFSFYWMNWVRQSPEKGLEWVAQIRNKPYNYETYYSDSVKGRFTISRDDSKSSVYLQMNNLRVEDMGIYYCTGSYYGMDYWGQGTSVTVS chain 2 DVVMTQTPLSLPVSLGDQASISCRSSQSLVHSNGNTYLRWYLQKPGQSPKVLIYKVSNRFSGVPDRFSGSGSGTDFTLKISRVEAEDLGVYFCSQSTHVPWTFGGGTKLEIK [chain 1 T28I D31F] | 1.66 | 0.526 |
| chain 1 EVKLDETGGGLVQPGRPMKLSCVASGFIFSHYWMNWVRQSPEKGLEWVAQIRNKPYNYETYYSDSVKGRFTISRDDSKSSVYLQMNNLRVEDMGIYYCTGSYYGMDYWGQGTSVTVS chain 2 DVVMTQTPLSLPVSLGDQASISCRSSQSLVHSNGNTYLRWYLQKPGQSPKVLIYKVSNRFSGVPDRFSGSGSGTDFTLKISRVEAEDLGVYFCSQSTHVPWTFGGGTKLEIK [chain 1 T28I D31H] | 1.28 | 0.699 |
| chain 1 EVKLDETGGGLVQPGRPMKLSCVASGFIFMDYWMNWVRQSPEKGLEWVAQIRNKPYNYETYYSDSVKGRFTISRDDSKSSVYLQMNNLRVEDMGIYYCTGSYYGMDYWGQGTSVTVS chain 2 DVVMTQTPLSLPVSLGDQASISCRSSQSLVHSNGNTYLRWYLQKPGQSPKVLIYKVSNRFSGVPDRFSGSGSGTDFTLKISRVEAEDLGVYFCSQSTHVPWTFGGGTKLEIK [chain 1 T28I S30M] | 1.04 | 0.769 |
| chain 1 EVKLDETGGGLVQPGRPMKLSCVASGFKFSDYWMNWVRQSPEKGLEWVAQIRNKPYNYETYYSDSVKGRFTISRDDSKSSVYLQMNNLRVEDMGIYYCTGSYYGMDYWGQGTSVTVS chain 2 DVVMTQTPLSLPVSLGDQASISCRSSQSLVHSNGNTYLRWYLQKPGQSPKVLIYKVSNRFSGVPDRFSGSGSGTDFTLKISRVEAEDLGVYFCSQSTHVPWTFGGGTKLEIK [chain 1 T28K] | 0.988 | 1.07 |

More lines, main results first:

| Kd (fluorescein) [nM] | Variant | yeast surface expression [1] |
| --- | --- | --- |
| ≥ 10000 | chain 1 EVKLDETGGGLVQPGRPMKLSCVASGFIRSDYWMNWVRQSPEKGLEWVAQIRNKPYNYETYYSDSVKGRFTISRDDSKSSVYLQMNNLRVEDMGIYYCTGSYYGMDYWGQGTSVTVS chain 2 DVVMTQTPLSLPVSLGDQASISCRSSQSLVHSNGNTYLRWYLQKPGQSPKVLIYKVSNRFSGVPDRFSGSGSGTDFTLKISRVEAEDLGVYFCSQSTHVPWTFGGGTKLEIK [chain 1 T28I F29R] | 0.695 |
| ≥ 10000 | chain 1 EVKLDETGGGLVQPGRPMKLSCVASGFIFSDYWMNAVRQSPEKGLEWVAQIRNKPYNYETYYSDSVKGRFTISRDDSKSSVYLQMNNLRVEDMGIYYCTGSYYGMDYWGQGTSVTVS chain 2 DVVMTQTPLSLPVSLGDQASISCRSSQSLVHSNGNTYLRWYLQKPGQSPKVLIYKVSNRFSGVPDRFSGSGSGTDFTLKISRVEAEDLGVYFCSQSTHVPWTFGGGTKLEIK [chain 1 T28I W36A] | 0.354 |
| ≥ 10000 | chain 1 EVKLDETGGGLVQPGRPMKLSCVASGFIFSDYWMRWVRQSPEKGLEWVAQIRNKPYNYETYYSDSVKGRFTISRDDSKSSVYLQMNNLRVEDMGIYYCTGSYYGMDYWGQGTSVTVS chain 2 DVVMTQTPLSLPVSLGDQASISCRSSQSLVHSNGNTYLRWYLQKPGQSPKVLIYKVSNRFSGVPDRFSGSGSGTDFTLKISRVEAEDLGVYFCSQSTHVPWTFGGGTKLEIK [chain 1 T28I N35R] | 0.849 |
| 2230 | chain 1 EVKLDETGGGLVQPGRPMKLSCVASGFIFSDSWMNWVRQSPEKGLEWVAQIRNKPYNYETYYSDSVKGRFTISRDDSKSSVYLQMNNLRVEDMGIYYCTGSYYGMDYWGQGTSVTVS chain 2 DVVMTQTPLSLPVSLGDQASISCRSSQSLVHSNGNTYLRWYLQKPGQSPKVLIYKVSNRFSGVPDRFSGSGSGTDFTLKISRVEAEDLGVYFCSQSTHVPWTFGGGTKLEIK [chain 1 T28I Y32S] | 0.842 |
| ≥ 10000 | chain 1 EVKLDETGGGLVQPGRPMKLSCVASGFIFSDTWMNWVRQSPEKGLEWVAQIRNKPYNYETYYSDSVKGRFTISRDDSKSSVYLQMNNLRVEDMGIYYCTGSYYGMDYWGQGTSVTVS chain 2 DVVMTQTPLSLPVSLGDQASISCRSSQSLVHSNGNTYLRWYLQKPGQSPKVLIYKVSNRFSGVPDRFSGSGSGTDFTLKISRVEAEDLGVYFCSQSTHVPWTFGGGTKLEIK [chain 1 T28I Y32T] | 0.869 |
| 2230 | chain 1 EVKLDETGGGLVQPGRPMKLSCVASGFIFSDCWMNWVRQSPEKGLEWVAQIRNKPYNYETYYSDSVKGRFTISRDDSKSSVYLQMNNLRVEDMGIYYCTGSYYGMDYWGQGTSVTVS chain 2 DVVMTQTPLSLPVSLGDQASISCRSSQSLVHSNGNTYLRWYLQKPGQSPKVLIYKVSNRFSGVPDRFSGSGSGTDFTLKISRVEAEDLGVYFCSQSTHVPWTFGGGTKLEIK [chain 1 T28I Y32C] | 0.946 |
